# Measurements from US20250074980A1 (BRIGHAM AND WOMEN S HOSPITAL, published 2025).
# T1: His-tagged CEACAM1 (human, UniProt P13688 35-428)
# T1 construct: 45 kDa SPR analyte; also called CEACAM1-HIS; CEACAM1 analyte
# T1 sequence: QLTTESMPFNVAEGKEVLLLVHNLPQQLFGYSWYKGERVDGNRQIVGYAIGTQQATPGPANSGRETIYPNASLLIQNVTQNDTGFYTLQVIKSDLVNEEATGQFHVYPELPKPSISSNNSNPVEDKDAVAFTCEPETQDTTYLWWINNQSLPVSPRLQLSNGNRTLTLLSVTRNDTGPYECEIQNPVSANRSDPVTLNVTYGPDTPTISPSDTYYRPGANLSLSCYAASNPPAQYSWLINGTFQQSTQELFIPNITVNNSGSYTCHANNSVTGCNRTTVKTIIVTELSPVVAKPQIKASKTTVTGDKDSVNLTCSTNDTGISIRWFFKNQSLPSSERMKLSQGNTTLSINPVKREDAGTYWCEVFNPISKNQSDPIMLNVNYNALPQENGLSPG
# T2: CEACAM3 on transfected HeLa cells (human, UniProt P40198 35-252)
# T2 construct: whole, on cells; also called HeLa-CEACAM3; HeLa C3
# T2 sequence (looked up): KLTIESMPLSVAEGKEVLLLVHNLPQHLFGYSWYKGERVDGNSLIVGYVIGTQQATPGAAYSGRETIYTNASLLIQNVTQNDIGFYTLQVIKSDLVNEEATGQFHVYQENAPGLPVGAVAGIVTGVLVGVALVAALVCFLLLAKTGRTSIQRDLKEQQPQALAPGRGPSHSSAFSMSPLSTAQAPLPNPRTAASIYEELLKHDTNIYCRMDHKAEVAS
# T3: GST-CEACAM1 (human, UniProt P13688 35-141, limits assumed)
# T3 construct: also called human CEACAM1-GST protein
# T3 sequence: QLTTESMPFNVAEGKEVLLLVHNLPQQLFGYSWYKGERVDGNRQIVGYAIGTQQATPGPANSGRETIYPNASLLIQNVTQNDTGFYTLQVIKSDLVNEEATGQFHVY
# How the values were obtained:
# His-tagged CEACAM1 [1] = target: T1, His-tagged CEACAM1; assay: SPR single-cycle, purified IgG captured
# Procedure, shortened: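 On a Biacore T200, purified IgG was captured on a Series S Protein A chip, and His-tagged CEACAM1 was passed over it as the analyte in single-cycle kinetics surface plasmon resonance at 25° C in HBS-P+ (pH 7.4). Reference-channel and blank-run signals were subtracted before fitting kon, koff and Kd, with relative KD calculated against the parent antibody assayed in the same experiment.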
# His-tagged CEACAM1 [2] = target: T1, His-tagged CEACAM1; assay: SPR single-cycle, supernatant IgG captured
# Procedure, shortened: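 Humanized, affinity-matured IgGs from crude supernatant (0.5 μg/ml in HBS-P+) captured on Protein A to ~100 RU. Single-cycle kinetics: CEACAM1 at three concentrations, 70–280 nM two-fold, 80 μl/min, 80 s association each, 150 s dissociation. Reference-channel and blank-run subtraction applied.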
# [3] = target: T2, CEACAM3 on transfected HeLa cells; assay: flow cytometry, HeLa-CEACAM3 transfectants, % staining, stacked bars
# Text: FIG. 11 illustrates the binding selectivity of different affinity-matured CEACAM1 antibodies. […] HELA cells were transfected with vector alone (HeLa-Neo) or vectors expressing CEACAM1, CEACAM3, CEACAM5, or CEACAM6, respectively, and stained with the indicated antibodies. […] MOPC=mouse IgG1 control antibody. Mouse antibodies as positive control for transfected CEACAM isoforms: Col-1=CEACAM3 and CEACAM5 antibody. 9A6=CEACAM6 antibody. T84.1=CEACAM cross-reactive antibody and T84.66=CEACAM5 antibody. Only 2nd FITC=No primary antibody, only secondary FITC conjugated antibody. […] Data for affinity-matured antibodies 9B3_8H3/Vκ8 S29A, 8H3_9B3/CP08_E05, and 8H3_9C2/CPO08_F05, as well as data for CEACAM8 antibody 80H3 were omitted from the FIG. due to an unusually high background signal.
# GST-CEACAM1 = target: T3, GST-CEACAM1; assay: competition ELISA vs parental murine antibody
# Protocol: The binding of the purified antibodies to human CEACAM1 was assessed in a competition ELISA assay. Nunc Immuno MaxiSorp 96 well flat bottom microtitre plates were pre-coated with 1 μg/ml of GST-CEACAM1 in 1×PBS, overnight at 4° C. The following day the plates were blocked for 1 hour at room temperature (“RT”) with 2% BSA/PBS before washing 3× with PBST pH 7.4. A 3-fold dilution series of the chimeric antibody chimeric antibody VH0/Vκ0, an irrelevant IgG4 antibody, and the humanized CEACAM1 antibodies from 100 μg/ml to 0.07 or 0.002 μg/ml were pre-mixed with a constant concentration of parental murine antibody (0.45 μg/ml final concentration), added to the plate and incubated for 1 hour at room temperature. Following 3×PBST washes, the binding of the parental murine CEACAM1 antibody was detected with an anti-mouse-HRP and TMB substrate. The reaction was stopped with 3 M HCl, absorbance read at 450 nm on a Dynex Technologies MRX TC II plate reader and the binding curves plotted. The binding of the humanized CEACAM antibody variants to CEACAM1 was compared to the chimeric antibody (VHO/Vκ0), which was included on each plate.
# His-tagged CEACAM1 [4] = target: T1, His-tagged CEACAM1; assay: SPR single-cycle, IgG captured
# Procedure, shortened: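 Biacore T200 single-cycle kinetics at 25° C in HBS-P+ (pH 7.4): antibodies (purified or HEK EBNA supernatant, 1 μg/ml) captured on Protein A to ~75 RU, His-tagged CEACAM1 analyte at 3.125–50 nM (5-point 2-fold) at 50 μl/min without regeneration. Reference channel Fc1 subtracted.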
# His-tagged CEACAM1 [5] = target: T1, His-tagged CEACAM1; assay: SPR single-cycle, supernatant IgG captured; remark: listed apart in the source
# Procedure, shortened: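 His-tagged CEACAM1 served as analyte over Protein A-captured IgG in single-cycle surface plasmon resonance on a Biacore T200, performed at 25° C in HBS-P+ (pH 7.4). The IgG was taken from supernatants of transiently PEI-transfected HEK EBNA cells grown in 6-well plates and harvested 5-7 days later. Relative KD, alongside fitted Kon, koff and Kd, was referenced to the parent antibody run in the same experiment.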
binder,measurement,setting,value
"9B3_9E5/CP08E05 (antibody, IgG4, V domains shown, IgG4 (S241P), kappa) VH: EVQLLESGGGLVQPGGSLRLSCAASGFTFNAHAISWVRQAPGKGLEWVATISSGGTYTYYPDSVKGRFTISRDNSKNTLYLQMNSLKAEDTAMYYCARHGFDYDAAWFAYWGQGTLVTVSS VL: EIVLTQSPATLSLSPGERATLSCRANSAVSYMYWYQQKPGQAPRPWIYLTSNRATGVPARFSGSGSGTDYTLTISSLEPEDFAVYYCQQWTTNPPTFGQGTKLEIK",Kd,His-tagged CEACAM1 [1],61 nM
same,koff,His-tagged CEACAM1 [1],0.007 s⁻¹
same,kon,His-tagged CEACAM1 [1],110000 M⁻¹ s⁻¹
same,relative KD to parent,His-tagged CEACAM1 [1],7.8
same,Kd,His-tagged CEACAM1 [2],67 nM
same,koff,His-tagged CEACAM1 [2],0.0078 s⁻¹
same,kon,His-tagged CEACAM1 [2],120000 M⁻¹ s⁻¹
same,relative KD to parent,His-tagged CEACAM1 [2],8.3
same,binding result,[3],binds
"VH3/Vκ5 (antibody, IgG4, V domains shown, IgG4 (S241P), kappa) VH: EVQLLESGGGLVQPGGSLRLSCAASGFIFSSHGMSWVRQAPGKGLEWVATISSGGTYTYYADSVKGRFTISRDNSKNTLYLQMNSLRAEDTAMYYCARHDFDYDAAWFAYWGQGTLVTVSS VL: EIVLTQSPATLSLSPGERATLSCRANSSVSYMAWYQQKPGQAPRLLIYLTSNRATGIPARFSGSGSGTDFTLTISSLEPEDFAVYYCQQWSSNPPTFGQGTKLEIK",binding result,GST-CEACAM1,no binding (tested: 100 µg/ml)
same,binding result,His-tagged CEACAM1 [4],no binding (tested: 50 nM)
"VH2/Vκ5 (antibody, IgG4, V domains shown, IgG4 (S241P), kappa) VH: EVQLLESGGGLVQPGGSLRLSCAASGFIFSSHGMSWVRQAPGKGLEWVATISSGGTYTYYPDSVKGRFTISRDNSKNTLYLQMNSLRAEDTAMYYCARHDFDYDAAWFAYWGQGTLVTVSS VL: EIVLTQSPATLSLSPGERATLSCRANSSVSYMAWYQQKPGQAPRLLIYLTSNRATGIPARFSGSGSGTDFTLTISSLEPEDFAVYYCQQWSSNPPTFGQGTKLEIK",binding result,GST-CEACAM1,no binding (tested: 100 µg/ml)
same,binding result,His-tagged CEACAM1 [4],no binding (tested: 50 nM)
"VH2/Vκ3 (antibody, IgG4, V domains shown, IgG4 (S241P), kappa) VH: EVQLLESGGGLVQPGGSLRLSCAASGFIFSSHGMSWVRQAPGKGLEWVATISSGGTYTYYPDSVKGRFTISRDNSKNTLYLQMNSLRAEDTAMYYCARHDFDYDAAWFAYWGQGTLVTVSS VL: EIVLTQSPATLSLSPGERATLSCRANSSVSYMAWYQQKPGQAPRPWIYLTSNRATGVPARFSGSGSGTDYTLTISSLEPEDFATYYCQQWSSNPPTFGQGTKLEIK",binding result,GST-CEACAM1,no binding (tested: 100 µg/ml)
"VH4/Vκ3 (antibody, IgG4, V domains shown, IgG4 (S241P), kappa) VH: EVQLLESGGGLVQPGGSLRLSCAASGFIFSSHGMSWVRQAPGKGLEWVSTISSGGTYTYYADSVKGRFTISRDNSKNTLYLQMNSLRAEDTAVYYCARHDFDYDAAWFAYWGQGTLVTVSS VL: EIVLTQSPATLSLSPGERATLSCRANSSVSYMAWYQQKPGQAPRPWIYLTSNRATGVPARFSGSGSGTDYTLTISSLEPEDFATYYCQQWSSNPPTFGQGTKLEIK",binding result,GST-CEACAM1,no binding (tested: 100 µg/ml)
same,binding result,His-tagged CEACAM1 [4],no binding (tested: 50 nM)
"CP09C02/CP08E05 (antibody, IgG4, V domains shown, IgG4 (S241P), kappa) VH: EVQLLESGGGLVQPGGSLRLSCAASEFTFSDHAMSWVRQAPGKGLEWVATISSGGTYTYYPDSVKGRFTISRDNSKNTLYLQMNSLKAEDTAMYYCARHGFDYDAAWFAYWGQGTLVTVSS VL: EIVLTQSPATLSLSPGERATLSCRANSAVSYMYWYQQKPGQAPRPWIYLTSNRATGVPARFSGSGSGTDYTLTISSLEPEDFAVYYCQQWTTNPPTFGQGTKLEIK",Kd,His-tagged CEACAM1 [5],78 nM
same,koff,His-tagged CEACAM1 [5],0.0075 s⁻¹
same,kon,His-tagged CEACAM1 [5],96000 M⁻¹ s⁻¹
same,relative KD to parent,His-tagged CEACAM1 [5],7.1
same,Kd,His-tagged CEACAM1 [1],72 nM
same,koff,His-tagged CEACAM1 [1],0.007 s⁻¹
same,kon,His-tagged CEACAM1 [1],97000 M⁻¹ s⁻¹
same,relative KD to parent,His-tagged CEACAM1 [1],6.6
same,binding result,[3],binds
"VH4/Vκ5 (antibody, IgG4, V domains shown, IgG4 (S241P), kappa) VH: EVQLLESGGGLVQPGGSLRLSCAASGFIFSSHGMSWVRQAPGKGLEWVSTISSGGTYTYYADSVKGRFTISRDNSKNTLYLQMNSLRAEDTAVYYCARHDFDYDAAWFAYWGQGTLVTVSS VL: EIVLTQSPATLSLSPGERATLSCRANSSVSYMAWYQQKPGQAPRLLIYLTSNRATGIPARFSGSGSGTDFTLTISSLEPEDFAVYYCQQWSSNPPTFGQGTKLEIK",binding result,GST-CEACAM1,no binding (tested: 100 µg/ml)
same,binding result,His-tagged CEACAM1 [4],no binding (tested: 50 nM)
